Data on one molecule can be found in patent US20120137392A1.

The assay addresses eJMC^Y859A (eJMC mutated in the first amino acid of the YXXΦ sequence) fused to GFP (Arabidopsis thaliana), Q9FL28. The experiment in a line: cell-based or functional assay.

Sequence of eJMC^Y859A (eJMC mutated in the first amino acid of the YXXΦ sequence) fused to GFP (Arabidopsis thaliana), Q9FL28 (Q9FL28 other isoform, or with tags, fused parts or gaps Y859A Y859A): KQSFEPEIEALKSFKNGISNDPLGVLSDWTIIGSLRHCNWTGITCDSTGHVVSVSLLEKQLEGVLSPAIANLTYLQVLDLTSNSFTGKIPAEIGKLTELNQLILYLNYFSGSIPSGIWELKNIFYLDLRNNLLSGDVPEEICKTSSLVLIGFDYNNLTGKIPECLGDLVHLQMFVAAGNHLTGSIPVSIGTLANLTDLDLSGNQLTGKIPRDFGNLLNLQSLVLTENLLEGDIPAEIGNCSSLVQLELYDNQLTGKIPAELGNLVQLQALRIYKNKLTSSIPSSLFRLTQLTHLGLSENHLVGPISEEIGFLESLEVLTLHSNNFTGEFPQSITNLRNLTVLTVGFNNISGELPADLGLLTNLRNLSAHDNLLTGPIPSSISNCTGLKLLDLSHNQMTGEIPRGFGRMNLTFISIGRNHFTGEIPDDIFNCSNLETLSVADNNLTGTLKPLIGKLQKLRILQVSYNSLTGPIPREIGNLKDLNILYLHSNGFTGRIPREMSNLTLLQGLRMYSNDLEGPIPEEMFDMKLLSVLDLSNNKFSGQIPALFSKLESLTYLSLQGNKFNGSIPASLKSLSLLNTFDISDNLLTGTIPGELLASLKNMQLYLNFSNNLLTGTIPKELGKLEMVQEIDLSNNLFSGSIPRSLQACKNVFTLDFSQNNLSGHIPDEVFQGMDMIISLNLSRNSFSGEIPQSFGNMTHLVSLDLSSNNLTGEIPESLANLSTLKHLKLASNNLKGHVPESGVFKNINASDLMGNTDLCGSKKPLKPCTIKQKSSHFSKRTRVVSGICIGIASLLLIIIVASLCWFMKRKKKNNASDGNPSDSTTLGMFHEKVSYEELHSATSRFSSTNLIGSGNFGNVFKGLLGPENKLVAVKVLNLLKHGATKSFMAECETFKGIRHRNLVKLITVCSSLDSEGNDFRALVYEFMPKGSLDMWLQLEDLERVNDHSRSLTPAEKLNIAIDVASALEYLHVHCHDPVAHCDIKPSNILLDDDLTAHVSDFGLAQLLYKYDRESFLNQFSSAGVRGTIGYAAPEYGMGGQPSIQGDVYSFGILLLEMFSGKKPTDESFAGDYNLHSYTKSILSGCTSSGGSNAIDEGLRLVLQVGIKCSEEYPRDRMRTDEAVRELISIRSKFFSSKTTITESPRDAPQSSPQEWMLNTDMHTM

QRLSTGSRINSAKDDAAGLQIA [flg22 (peptide derived from bacterial flagellin)] came in with an ethylene accumulation, agroinfiltrated tobacco leaf explants, against the negative control of 4.8 times.
